Source: patent publication US20160245821A1

Assays:
[1] = molecular target: WD Repeat Containing Protein 5 (WDR5) (UniProt P61964); test: fluorescent polarization (FP) assay
[2] = molecular target: WD Repeat Containing Protein 5 (WDR5) (UniProt P61964); test: ITC
[3] = molecular target: WD Repeat Containing Protein 5 (WDR5) (UniProt P61964); test: thermal shift

- Kd [1]: 1300 nM
- Kd [2]: 1300 nM
- ΔTm*(Thermal shift) [3]: 2 ° C.
Substance: Peptide Substrate (WIN peptide, pentapeptide fragment of the WDR5 binding partner MLL1 protein)
